Results from article doi:10.1101/2020.01.13.905216 (bioRxiv, 2020).

Biological target: the molecule itself
Test: cryo-EM structure

B1: Thermophilic Factor 55 β subunit (TF55β) chaperonin complex from Sulfolobus solfataricus (natural protein, S. solfataricus, UniProt Q9V2T8 1-554, looked up)
chain: MATATVATTPEGIPVIILKEGSSRTYGKEALRANIAAVKAIEEALKSTYGPRGMDKMLVDSLGDITITNDGATILDKMDLQHPTGKLLVQIAKGQDEETADGTKTAVILAGELAKKAEDLLYKEIHPTIIVSGYKKAEEIALKTIQEIAQPVTINDTDVLRKVALTSLGSKAVAGAREYLADLVVKAVAQVAELRGDKWYVDLDNVQIVKKHGGSVNDTQLVYGIVVDKEVVHPGMPKRIENAKIALLDASLEVEKPELDAEIRINDPTQMHKFLEEEENILKEKVDKIAATGANVVICQKGIDEVAQHYLAKKGILAVRRAKKSDLEKLARATGGRVISNIDELTSQDLGYAALVEERKVGEDKMVFVEGAKNPKSVSILIRGGLERVVDETERALRDALGTVADVIRDGRAVAGGGAVEIEIAKRLRKYAPQVGGKEQLAIEAYANAIEGLIMILAENAGLDPIDKLMQLRSLHENETNKWYGLNLFTGNPEDMWKLGVIEPALVKMNAVKAATEAVTLVLRIDDIVAAGKKSGSEPSGKKEKDKEEKSSED
- stoichiometry N: 18
